{
  "source": "paper PMC3283256",
  "about": "(The Journal of Biological Chemistry, 2010)",
  "molecular_target": "His-tagged N-WASP (rat, UniProt O08816 1-501)",
  "sequence (O08816 whole entry)": "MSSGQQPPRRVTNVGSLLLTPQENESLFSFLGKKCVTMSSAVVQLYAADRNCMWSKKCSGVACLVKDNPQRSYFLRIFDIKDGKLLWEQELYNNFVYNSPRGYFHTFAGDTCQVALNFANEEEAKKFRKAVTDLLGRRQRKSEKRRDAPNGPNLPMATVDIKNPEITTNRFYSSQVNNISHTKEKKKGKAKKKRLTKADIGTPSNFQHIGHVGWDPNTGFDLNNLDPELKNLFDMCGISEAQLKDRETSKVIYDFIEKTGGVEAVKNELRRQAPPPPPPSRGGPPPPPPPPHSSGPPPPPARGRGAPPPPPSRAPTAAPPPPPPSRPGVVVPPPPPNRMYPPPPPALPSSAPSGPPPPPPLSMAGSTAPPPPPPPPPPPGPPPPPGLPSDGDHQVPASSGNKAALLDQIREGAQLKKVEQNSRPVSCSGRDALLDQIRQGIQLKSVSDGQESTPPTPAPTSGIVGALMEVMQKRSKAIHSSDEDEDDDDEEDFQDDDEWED",
  "assay": "pull-down",
  "data": [
    {"binder": "GST-Gas7 (natural protein, mouse, UniProt Q60780 1-421, looked up) MATALQKPGMVPPPPGEESQTVILPPGWHSYLSPQGRRYYVNTTTNETTWERPSSSPGISASPAPHRSSLPTTVNGYHASGTPAHPPETAHMSLRKSTGDSQNLGSSSPGRKQSKENTITINCVTFPHPDTMPEQQLLKPTEWSYCDYFWADKKDPQGNGTVAGFELLLQKQLKGKQMQKEMSEFIRERIKIEEEYAKNLAKLSQNSLAAQEEGSLGEAWAQVKKSLADEAEVHLKFSAKLHSEVEKPLMNFRENFKKDMKKCDHHIADLRKQLASRYASVEKARKALTERQKDLEMKTQQLEIKLSNKTEEDIKKARRKSTQAGDDLMRCVDLYNQAQSKWFEEMVTTTLELERLEVERVEMIRQHLCQYTQLRHETDMFNQSTVEPVDQLLRKVDPAKDRELWVREHKTGNIRPVDMEI", "values": [
      {"measurement": "binding result", "value": "binds"}
    ]},
    {"binder": "GST-Gas7WW2 (domain or fragment, mouse, UniProt Q60780 1-151, looked up) MATALQKPGMVPPPPGEESQTVILPPGWHSYLSPQGRRYYVNTTTNETTWERPSSSPGISASPAPHRSSLPTTVNGYHASGTPAHPPETAHMSLRKSTGDSQNLGSSSPGRKQSKENTITINCVTFPHPDTMPEQQLLKPTEWSYCDYFWA", "values": [
      {"measurement": "binding result", "value": "binds"}
    ]}
  ]
}
